Results: patent publication US20210115154A1 (Chugai, published 2021)

T1: human MASP-1 (human, UniProt P48740 20-699)
T1 sequence: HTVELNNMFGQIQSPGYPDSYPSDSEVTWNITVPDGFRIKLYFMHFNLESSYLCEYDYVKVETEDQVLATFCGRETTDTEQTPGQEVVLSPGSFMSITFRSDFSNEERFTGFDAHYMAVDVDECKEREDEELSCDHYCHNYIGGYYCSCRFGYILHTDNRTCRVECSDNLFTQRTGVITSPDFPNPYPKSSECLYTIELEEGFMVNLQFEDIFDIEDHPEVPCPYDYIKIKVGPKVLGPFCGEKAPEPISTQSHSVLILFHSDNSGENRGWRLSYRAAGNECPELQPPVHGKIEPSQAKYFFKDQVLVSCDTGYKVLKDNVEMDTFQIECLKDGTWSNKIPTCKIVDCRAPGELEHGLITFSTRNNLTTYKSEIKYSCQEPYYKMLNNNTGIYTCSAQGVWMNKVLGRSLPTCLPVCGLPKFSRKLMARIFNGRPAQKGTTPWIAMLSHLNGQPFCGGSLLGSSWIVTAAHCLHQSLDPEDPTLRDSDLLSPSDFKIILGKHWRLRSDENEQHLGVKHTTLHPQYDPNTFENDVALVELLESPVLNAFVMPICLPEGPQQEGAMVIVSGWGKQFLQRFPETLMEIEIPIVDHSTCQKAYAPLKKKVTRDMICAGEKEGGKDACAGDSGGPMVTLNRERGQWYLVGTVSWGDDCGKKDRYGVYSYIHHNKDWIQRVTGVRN

T2: Human MASP-1 (CCP1-CCP2-SP S646A) (human, UniProt P48740 298-699, labelled with NHS-PEG4-Biotin (sites not given))
T2 construct: biotinylated for the ELISAs; also called N-terminally Flag-tagged human MASP-1 (CCP1-CCP2-SP S646A); not shown: N-terminal Flag-tag
T2 sequence: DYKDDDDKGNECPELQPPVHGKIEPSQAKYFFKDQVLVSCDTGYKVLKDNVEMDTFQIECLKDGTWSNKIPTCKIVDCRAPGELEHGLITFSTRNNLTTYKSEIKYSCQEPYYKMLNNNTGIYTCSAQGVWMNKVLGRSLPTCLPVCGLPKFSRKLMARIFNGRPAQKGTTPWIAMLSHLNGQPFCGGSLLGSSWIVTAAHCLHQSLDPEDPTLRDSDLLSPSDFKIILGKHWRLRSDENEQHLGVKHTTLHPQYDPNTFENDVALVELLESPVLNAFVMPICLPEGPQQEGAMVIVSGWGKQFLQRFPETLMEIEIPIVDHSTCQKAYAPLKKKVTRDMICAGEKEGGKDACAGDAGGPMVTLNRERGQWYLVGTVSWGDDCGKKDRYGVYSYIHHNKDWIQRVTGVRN

T3: Human MASP-3 (CCP1-CCP2-SP S664A) (human, labelled with NHS-PEG4-Biotin (sites not given))
T3 construct: Biotinylated for the cross-reactivity ELISA; also called N-terminally Flag-tagged human MASP-3 (CCP1-CCP2-SP S664A); not shown: N-terminal Flag-tag
T3 chain: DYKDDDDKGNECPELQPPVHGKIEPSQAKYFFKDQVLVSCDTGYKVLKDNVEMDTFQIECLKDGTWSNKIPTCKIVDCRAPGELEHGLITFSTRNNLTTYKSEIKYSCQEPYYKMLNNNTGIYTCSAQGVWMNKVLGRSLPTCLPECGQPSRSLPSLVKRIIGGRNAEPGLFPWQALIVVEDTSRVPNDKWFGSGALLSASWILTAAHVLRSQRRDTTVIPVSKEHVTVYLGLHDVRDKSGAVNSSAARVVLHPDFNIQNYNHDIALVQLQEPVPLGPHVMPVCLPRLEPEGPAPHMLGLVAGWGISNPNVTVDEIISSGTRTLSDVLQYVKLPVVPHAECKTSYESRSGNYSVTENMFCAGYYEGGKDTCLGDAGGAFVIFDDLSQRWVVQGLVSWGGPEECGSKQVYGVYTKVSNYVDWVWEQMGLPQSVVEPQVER


How the values were obtained:
[1] = target: T1, human MASP-1; experiment: cell-based or functional assay
[2] = target: T2, Human MASP-1 (CCP1-CCP2-SP S646A); experiment: ELISA, antibody captured by goat anti-human IgG, 8 nM biotinylated antigen, streptavidin-HRP
Description: (§1) ELISA assay was used to check the cross-reactivity of the chimeric monoclonal antibodies generated in 3.1 against human MASP-1 and human MASP-3. Goat anti-human IgG polyclonal antibody (Thermo Scientific, H10500) was diluted to 1 micro g/ml with PBS (-) and added to 384-well MAXISorp plates (Nunc, Cat No. 164688). The plates were incubated for 1 hour at room temperature, and blocked with Blocking One (Nacalai Tesque, Cat No. 03953-95) diluted 5 times. The plates were incubated for 1 hour, washed, and anti-MASP-1 antibody was added and incubated for 1 hour. Human MASP-1 (CCP1-CCP2-SP S646A) or human MASP-3 (CCP1-CCP2-SP S664A) was labelled with NHS-PEG4-Biotin (PIERCE, Cat No. 21329). After incubation, the plates were washed and 8 nM of labeled antigen was added and incubated for 1 hour. After incubation, the plates were washed and Streptavidin-HRP conjugate (Thermo Scientific 21130) were added. After 1 hour incubation, binding of biotinylated antigen was detected by the addition of ABTS (KPL, Cat No. 50-66-06). Anti-MASP-1 monoclonal antibodies listed in Table 5 were selected as MASP-1 specific antibodies and used for further analysis.

[3] = target: T3, Human MASP-3 (CCP1-CCP2-SP S664A); experiment: as above
Description: as §1

Binder | IC50 of inhibition of human C4c deposition (C4c ELISA, normal human serum on mannan) [1] [µg/mL] | absorbance at 405 nm after background subtraction [2] [absorbance at 405 nm] | absorbance at 405 nm after background subtraction [3] [absorbance at 405 nm] | absorbance at 405 nm after background subtraction (absorbance at 405 nm) [3]
MAS0114bb (antibody, human IgG4 S228P, kappa, V domains shown, Rabbit/human chimeric antibody: rabbit variable regions recombined with F760G4 and kOMTC constant regions; also called anti-MASP-1 chimeric mAb MAS0114bb) VH: QSVEESGGRLVTPGTPLTLTCTASGFDINNYAIHWVRQAPGEGLEWIGYIYARSGVTWYASWVKGRFTISKTSTTVDLKMTSLTTEDTATYFCARVLAGGGYANTGLSLWGPGTLVTVSS VL: DIVMTQTPSSVSAAVGGTVTIKCQASQNIGYSSAWYQQKPGQRPKLMIYGASTLASGVPSRFSGSGSGTEYTLTISGVQCDDAATYYCQSNYISSGSVDGTFGGGTKVEIKR | 0.14 | 1.79 | -0.068 | –
MAS0102dd (antibody, human IgG4 S228P, kappa, V domains shown, Rabbit/human chimeric antibody: rabbit variable regions recombined with F760G4 and kOMTC constant regions; also called anti-MASP-1 chimeric mAb MAS0102dd) VH: QSVEESGGRLVTPGTPLTLTCTVSGFSLSSYAMSWVRQAPGKGLEWIGIITNLDNTYYANWAKGRFTISKTSTTVDLKITSPTTEDTAAYLCARERIKRKYSYDDYGGWAFDPWGPGTLVTVSS VL: QVLTQTPSSVSGPVGGTVTINCQAIENIYRSLAWYQQKPGQPPKLLIYDTSDLASGVPSRFSGSGSGTEYTLTISGVQCDDAATYYCQSYYYSSVTYNAFGGGTKVEIKR | 0.29 | 1.98 | -0.027 | –
MAS0116aa (antibody, human IgG4 S228P, kappa, V domains shown, Rabbit/human chimeric antibody: rabbit variable regions recombined with F760G4 and kOMTC constant regions; also called anti-MASP-1 chimeric mAb MAS0116aa) VH: QSLEESGGRLVTPGTPLTLTCTASGFSLSSCYMSWVRQAPGEGLEWIGTIYTGSGATYYASWAKGRFTVSITSTTVDLKITSPTTEDTATYFCARAIYPGSSSSNLCAFDLWGPGTLVTVSS VL: QVLTQTPASVSAAVGGTVTINCQASQSVYDNNWLAWYQQKPGQPPKLLIYQASSLASGVPSRFKGSGSGAQFTLTISDLECDDAATYFCQGYYAGVLYSFGGGTKVEIKR | 0.47 | 1.72 | 0.055 | –
MAS0177hh (antibody, human IgG4 S228P, kappa, V domains shown, Rabbit/human chimeric antibody: rabbit variable regions recombined with F760G4 and kOMTC constant regions; also called anti-MASP-1 chimeric mAb MAS0177hh) VH: QSVEESGGRLVTPGTPLTLTCTASGFSLSSAYMNWVRQAPGKGLEWIGIIYASGSTWYASWAKGRFTISKTSTTVDLKITSPTTEDTATYFCARDDYGTADLWGPGTLVTVSS VL: AVVLTQTASPVSAPVGGTVTIKCQASQSIGSSLAWYQQKPGQSPKLLIYGASTLVSGVSSRFSGSRSGTEFSLTISDLECADAATYYCQNYYLSSSSADRRTFGGGTKVEIKR | 3.29 | 0.898 | – | 0.388
MAS0141aa (antibody, human IgG4 S228P, kappa, V domains shown, Rabbit/human chimeric antibody: rabbit variable regions recombined with F760G4 and kOMTC constant regions; also called anti-MASP-1 chimeric mAb MAS0141aa) VH: QSVEESGGRLVTPGTPLTLTCTASGFSLINYYMTWVRQAPGKGLEWIGIINTDGGTYYASWAKGRFTISRTSTTVDLKMTSLTTEDTATYFCARGVFTGGWTGMRTNLWGPGTLVTVSS VL: DVVMTQTPASVEAAVGGTVTIKCQASEDIYILLAWYQQKPGQPPKLLIYAASNLESGVPSRFKGSGSGTEFTLTISDLECADAATYYCQCTYGSSSSNAFGGGTKVEIKR | 0.45 | 1.51 | -0.147 | –
MAS0154dd (antibody, human IgG4 S228P, kappa, V domains shown, Rabbit/human chimeric antibody: rabbit variable regions recombined with F760G4 and kOMTC constant regions; also called anti-MASP-1 chimeric mAb MAS0154dd) VH: QSVEESGGRLVTPGTPLTLTCTVSGFSLSNYNMGWVRQAPGEGLEYIGIISSQGDIYYATWAKGRFTISKTSTTVDLKITSPTTEDTATYFCARARHVGSAADSYFHLWGLGTLVTVSS VL: AVVLTQTASPVSAAVGGTVTINCQASEEIYRNLAWYQQKPGQRPKLLIYGASNLASGVPSRFSGSGSGTEYTLTISDLECADAATYYCQRYAWGKNSADGNTFGGGTKVEIKR | 0.11 | 1.95 | 0.078 | –
